Reference: publication PMC2171506

Molecular target: CYK-4/MgcRacGAP (UniProt Q9H0H5)
Assay: myc IP, anti-CYK-4 Western blot
Settings: reference: E6 wild type; sites T342

Sequence of UniProt Q9H0H5 (Q9H0H5 whole entry, looked up): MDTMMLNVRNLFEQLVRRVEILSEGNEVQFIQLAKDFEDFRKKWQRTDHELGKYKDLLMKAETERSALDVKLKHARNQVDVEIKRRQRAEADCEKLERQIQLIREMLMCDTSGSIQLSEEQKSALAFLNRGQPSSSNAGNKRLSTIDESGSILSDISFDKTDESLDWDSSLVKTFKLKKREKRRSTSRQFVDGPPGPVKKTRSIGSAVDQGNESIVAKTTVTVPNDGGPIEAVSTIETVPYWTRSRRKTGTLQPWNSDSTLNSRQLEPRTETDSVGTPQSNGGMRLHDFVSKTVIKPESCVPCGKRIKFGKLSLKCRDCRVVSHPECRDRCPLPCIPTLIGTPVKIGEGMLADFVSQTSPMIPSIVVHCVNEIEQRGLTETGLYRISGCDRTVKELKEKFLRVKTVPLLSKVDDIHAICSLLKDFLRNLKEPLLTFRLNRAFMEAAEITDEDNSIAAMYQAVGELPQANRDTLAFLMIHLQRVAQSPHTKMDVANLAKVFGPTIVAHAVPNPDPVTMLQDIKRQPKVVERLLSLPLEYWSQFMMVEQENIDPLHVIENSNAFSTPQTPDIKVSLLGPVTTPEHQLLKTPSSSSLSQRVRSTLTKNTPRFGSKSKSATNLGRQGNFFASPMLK

ECT2 E6, 1-352 (from UniProt Q9H8V3-4) E6* (T342A)
binding against the reference: stronger
